Laboratory results as given in the supplement of paper PMC10567573.

B1: TRAF3IP2 (parent)
chain: PRPPSNPPARGTLKTSNLPEELRK
B2: TRIM15 (parent)
chain: QSSGKILLCPLCQEEEQAETPMAP

Variants of: B1
Test: protein stability index of a GFP-peptide fusion (GPS, HEK-293T) (PSI 1-6); higher = more stable
Settings: c terminus: a fixed tail appended
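Also: lentivirally expressed fusions sorted by FACS into six bins by GFP to DsRed ratio, PSI derived from sequencing read proportions per bin multiplied by bin number.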

Protein stability index, by site and new letter:
N6: L 5.01 | A 5.47 | Q 4.78 | H 5.21 | R 4.49 | C 5.18 | I 4.62 | W 5.83 | F 5.34 | D 4.8 | E 5.15 | K 4.72 | S 5.01 | M 5.31 | Y 4.99 | V 4.79 | T 4.69 | G 4.65
S5: I 4.75 | E 4.55 | L 4.19 | Q 4.45 | W 3.98 | C 4.28 | F 4.45 | T 4.56 | Y 3.84 | D 3.83 | H 4.38 | M 5 | V 4.76 | A 4.32 | G 4.89 | R 4.36 | K 4.21 | N 4.63
P8: S 4.8 | M 4.76 | A 5.06 | N 4.82 | W 4.22 | L 4.69 | K 4.99 | C 4.48 | G 4.82 | D 4.99 | H 3.56 | T 5.02 | Y 4.69 | F 4.43 | E 4.81 | V 5.04 | I 4.72 | Q 5.09 | R 4.43
L13: A 4.52 | G 4.67 | D 5.09 | K 4.79 | I 4.6 | T 4.82 | C 3.92 | S 4.94 | M 5.06 | Q 4.8 | N 5.15 | W 4.44 | Y 4.25 | F 4.37 | E 5.04 | V 5.32 | H 4.36 | R 4.6
A9: N 4.95 | G 4.84 | I 4.65 | E 5.06 | K 4.44 | L 4.85 | R 4.6 | M 4.68 | Q 4.7 | W 4.47 | V 4.31 | H 4.63 | D 5 | S 4.62 | T 5.3 | C 4.31 | F 4.37 | Y 4.5
K14: M 4.94 | F 4.84 | P 4.83 | G 4.68 | W 4.58 | N 4.97 | Y 4.77 | S 5.4 | A 5.35 | C 4.76 | V 5.17 | T 5.09 | Q 5.21 | L 5.17 | H 5.22 | D 5.37 | R 4.65 | I 4.82 | E 5.27
P1: Y 4.46 | R 4.44 | C 4.46 | H 4.64 | G 4.89 | S 4.62 | I 4.59 | F 4.31 | Q 4.74 | E 4.43 | K 4.63 | W 4.76 | V 4.42 | A 4.49 | D 4.6 | T 4.88 | N 4.59 | M 5.07 | L 4.67
P7: S 4.89 | K 4.53 | Y 4.05 | G 4.58 | T 4.76 | A 4.8 | H 4.27 | L 4.83 | Q 4.56 | W 4.02 | C 4.4 | D 4.97 | E 4.81 | R 4.75 | V 4.11 | F 4.21 | M 4.09 | I 4.5 | N 5.17
T12: V 4.41 | K 4.7 | R 4.58 | D 4.88 | A 4.66 | E 4.54 | M 4.56 | C 4.24 | Y 4.78 | F 4.3 | S 4.35 | I 4.54 | W 3.65 | Q 4.52 | L 4.65 | G 4 | H 4.75 | N 4.42
R10: G 4.27 | E 4.47 | V 5.64 | W 4.76 | Y 4.89 | C 4.58 | L 4.96 | M 4.64 | F 4.49
T15: E 4.94 | D 5.13 | C 4.72 | A 4.22
R2: K 4.56 | W 4.85 | G 5.12 | F 5.09 | M 5.08 | E 4.85 | C 5.19 | S 5.25 | Q 4.59 | V 4.63 | L 4.2
P4: R 4.49 | F 4.25 | K 4.91 | L 4.58 | Q 4.88 | N 4.7 | M 4.39 | Y 4.43 | W 4.61 | I 4.66 | G 4.54 | A 4.79 | C 4.84 | D 4.7 | H 4.5 | S 4.89 | E 4.52 | V 4.53 | T 3.97
P3: V 4.79 | I 5.05 | Y 4.7 | F 4.13 | N 4.29 | S 4.95 | L 4.5 | E 5.35 | A 5.13 | H 4.02 | G 4.82 | R 4.54 | T 4.9 | M 4.42 | K 4.88 | C 5.15 | D 5.07 | W 4.83 | Q 4.2
G11: C 4.25 | S 4.54 | P 4.42 | V 4.37 | E 4.96 | R 3.85 | D 4.86 | Y 4.28 | F 3.69 | L 3.88 | W 3.54 | A 4.73

Variants of: B2
Test: as above
Settings: c terminus: a fixed tail appended

Protein stability index of substitutions, site by site:
T20: W 2.16 | N 3.4 | P 3.16 | L 3.8 | F 2.84 | R 3.07 | Q 3.5 | A 3.65 | Y 2.89 | H 3.46 | K 4 | I 3.5 | S 3.5 | E 3.92 | C 3.54 | G 2.49 | D 3.66
P24: K 3.17 | I 3.85 | S 3.53 | R 1.71 | Q 3.41 | T 3.48 | H 3.88 | D 3.79 | C 2.47 | E 4.29 | Y 2.68 | A 4 | G 3.81 | M 3.31 | F 3.25 | L 3.09
P21: H 2.98 | A 3 | K 2.43 | L 2.86 | V 3.73 | C 3.94 | D 3.93 | M 2.45 | N 3.85 | F 3.13 | Q 3.39 | E 3.18 | S 3.76 | Y 2.68 | R 1.83 | T 3.16 | G 3.19 | I 2.88
E19: K 3.94 | I 2.77 | R 2.99 | N 2.87 | P 2.34 | G 3.09 | S 2.51 | T 3.09 | M 2.19 | Y 2.96 | Q 2.61 | W 1.52
M22: V 2.28 | G 4.22 | I 3.45 | Y 3.08 | F 2.86 | A 3.99 | L 4.28 | T 4.48 | D 4.14 | E 4.34 | N 3.52 | C 5.56 | K 3.16
A23: G 3.52 | C 3.71 | T 3.9 | D 3.96 | Y 2.94 | R 2.6 | M 3.69 | N 3.5 | S 3.86 | H 3.67 | I 2.86 | Q 3.21 | E 4.61 | F 3.25 | L 2.97 | K 3.63 | V 4.12 | W 2.91
